Assay results reported in PMC11109203 (Nature Communications, 2024).

B1: Clr3 (untagged) (enzyme, S. pombe, UniProt P56523 1-687, looked up)
chain: MLASNSDGASTSVKPSDDAVNTVTPWSILLTNNKPMSGSENTLNNESHEMSQILKKSGLCYDPRMRFHATLSEVDDHPEDPRRVLRVFEAIKKAGYVSNVPSPSDVFLRIPAREATLEELLQVHSQEMYDRVTNTEKMSHEDLANLEKISDSLYYNNESAFCARLACGSAIETCTAVVTGQVKNAFAVVRPPGHHAEPHKPGGFCLFNNVSVTARSMLQRFPDKIKRVLIVDWDIHHGNGTQMAFYDDPNVLYVSLHRYENGRFYPGTNYGCAENCGEGPGLGRTVNIPWSCAGMGDGDYIYAFQRVVMPVAYEFDPDLVIVSCGFDAAAGDHIGQFLLTPAAYAHMTQMLMGLADGKVFISLEGGYNLDSISTSALAVAQSLLGIPPGRLHTTYACPQAVATINHVTKIQSQYWRCMRPKHFDANPKDAHVDRLHDVIRTYQAKKLFEDWKITNMPILRDSVSNVFNNQVLCSSNFFQKDNLLVIVHESPRVLGNGTSETNVLNLNDSLLVDPVSLYVEWAMQQDWGLIDINIPEVVTDGENAPVDILSEVKELCLYVWDNYVELSISKNIFFIGGGKAVHGLVNLASSRNVSDRVKCMVNFLGTEPLVGLKTASEEDLPTWYYRHSLVFVSSSNECWKKAKRAKRRYGRLMQSEHTETSDMMEQHYRAVTQYLLHLLQKARPTSQ
notes: Clr3, histone deacetylase, S. pombe; source: E. coli Rosetta, purified (Ni-NTA, Ulp1 digestion, Superdex); not shown: 6*His-Sumo, N-terminal, cleaved

How the values were obtained:
Settings in all cases: both partners purified
[1] = molecular target: T1, GST-Sad1_(1-169) with H2AB (Sad1-H2AB complex of the pull-downs) (S. pombe, UniProt Q09825 1-169; P04913 32-126; P04909 15-108); test: pull-down; GST-Sad1_(1-169) on glutathione beads with silencing factors in the presence of H2AB; same buffer as the histone pull-downs
T1 construct: histone H2A, S. pombe, residues 15-108; m1 with m5; source: E. coli Rosetta, purified proteins mixed; not shown: GST, N-terminal, kept; 6*His, N-terminal, cleaved
T1 sequence (P04913 other isoform, or with tags, fused parts or gaps): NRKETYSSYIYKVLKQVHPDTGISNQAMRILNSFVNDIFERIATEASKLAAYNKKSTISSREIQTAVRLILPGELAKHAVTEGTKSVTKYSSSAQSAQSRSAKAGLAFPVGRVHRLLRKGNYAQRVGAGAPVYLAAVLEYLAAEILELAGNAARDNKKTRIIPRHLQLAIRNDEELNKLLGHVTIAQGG

Clr3 (untagged) = molecular target: B1; test: pull-down; GST-Sad1_(1-169) on glutathione beads with Sumo-Sir2 or untagged Clr3, in the absence of H2AB; same buffer as the histone pull-downs
FITC labeled Clr3 = molecular target: T2, FITC labeled Clr3 (S. pombe, UniProt P56523 1-687, FITC label); test: MST; Monolith NT.115; 25 mM HEPES pH 7.5, 150 mM NaCl, 2 mM DTT; 20 nM FITC labeled Clr3; ligands (500 μM Sad1_(1-169) or 250 μM Sad1_(1-169)-H2AB complex) diluted by 12 gradients; medium MST power, 80% LED
T2 construct: Clr3, histone deacetylase, S. pombe; source: E. coli Rosetta, purified, labeled with the EZLabel Protein FITC Labeling Kit
T2 sequence (looked up): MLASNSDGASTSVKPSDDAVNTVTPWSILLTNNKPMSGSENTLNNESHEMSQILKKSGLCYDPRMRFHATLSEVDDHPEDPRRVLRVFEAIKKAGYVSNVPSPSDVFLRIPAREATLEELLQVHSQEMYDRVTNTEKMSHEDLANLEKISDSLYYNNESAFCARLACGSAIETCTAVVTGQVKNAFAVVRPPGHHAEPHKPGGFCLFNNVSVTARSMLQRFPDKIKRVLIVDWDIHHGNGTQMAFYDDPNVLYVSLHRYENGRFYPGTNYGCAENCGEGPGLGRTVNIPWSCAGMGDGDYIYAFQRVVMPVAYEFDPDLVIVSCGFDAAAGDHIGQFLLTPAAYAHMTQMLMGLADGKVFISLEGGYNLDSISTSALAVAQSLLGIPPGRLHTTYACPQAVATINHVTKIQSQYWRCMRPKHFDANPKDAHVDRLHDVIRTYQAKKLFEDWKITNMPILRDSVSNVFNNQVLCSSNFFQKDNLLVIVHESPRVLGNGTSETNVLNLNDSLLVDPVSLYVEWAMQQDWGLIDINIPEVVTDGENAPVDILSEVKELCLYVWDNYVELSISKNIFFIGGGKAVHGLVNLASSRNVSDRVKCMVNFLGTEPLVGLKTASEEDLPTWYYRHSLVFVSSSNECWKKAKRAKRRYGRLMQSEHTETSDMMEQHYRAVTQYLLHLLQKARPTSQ

[2] = molecular target: T3, S. pombe H2AB fusion protein (H2B_(32-126)-H2A_(15-108)) (S. pombe, UniProt P04913 32-126; P04909 15-108); test: ITC; MicroCal ITC200, 20 °C; 25 mM Tris-HCl pH 8.0, 400 mM NaCl, 2 mM DTT; Sad1 (500 μM) titrated into H2AB (50 μM)
T3 construct: histone H2A, S. pombe, residues 15-108; No linker between the two parts is told; Modified pCDF-Duet vector, His tag followed by a 3C site; also called single-chain fusion of H2A and H2B; H2A-H2B fusion protein; source: E. coli Rosetta, purified (3C digestion, Superdex); not shown: 6*His, N-terminal, cleaved
T3 sequence (P04913 other isoform, or with tags, fused parts or gaps): as the sequence (P04913 other isoform, or with tags, fused parts or gaps) above

B1
binding result [1]: binds

B2: GST-Sad1_(1-169) (domain or fragment, S. pombe, UniProt Q09825 1-169, looked up)
chain: MFTNTPVGGKRERQNGAHPAWSTLGANSAQIHQNTADLASKMHKLRYTKIRSPPTRVSIESITPKQRFPAPNFEQAYHSNIRYEQEESDNEEFENVVKNGHEASTNVFYESDGDDEEFVNEEYENSIDEESDDEGYSLNEDTTATNASFRYPMNQRSTRKSQFYSSKFK
notes: pGEX-6P-1 vector; source: E. coli Rosetta, purified (glutathione Sepharose 4B, eluted with reduced glutathione, Superdex); not shown: GST, N-terminal, kept
binding result (Clr3 (untagged)): binds

B3: Sad1_(1-169) (domain or fragment, S. pombe, UniProt Q09825 1-169, looked up)
chain: MFTNTPVGGKRERQNGAHPAWSTLGANSAQIHQNTADLASKMHKLRYTKIRSPPTRVSIESITPKQRFPAPNFEQAYHSNIRYEQEESDNEEFENVVKNGHEASTNVFYESDGDDEEFVNEEYENSIDEESDDEGYSLNEDTTATNASFRYPMNQRSTRKSQFYSSKFK
notes: Cleavage is told in general for proteins not needed with their tag; used in ITC, SEC and MST; also called Sad1NTD; source: E. coli Rosetta, purified (glutathione Sepharose 4B, 3C digestion on beads, Superdex); not shown: GST, N-terminal, cleaved
binding result (FITC labeled Clr3): binds
Kd [2]: 9.5 µM

B4: Sumo-Sir2 fusion protein (enzyme, S. pombe, UniProt O94640 1-475, looked up)
chain: MASNPLDNNMPTTPVEEKIPVASYSPSSSGSSSGASLLVDIMCGSKETEDEEVDSDEWDKPETENISDLDERSEMVRYLRASGYAKFLEKYLIEEELPVRSILKKLGINLPSALEEFEDIDLLPLLKEVLKREVARRIKLPHFNTFEDVVNLLKKAKNVVVLVGAGISTSLGILDFRSDNGFYARLARHGLSEPSEMFDIHTFRENPEIFYTFARDLLPETNHYSPSHAFIRLLEKKNKLSTLFTQNIDNLEKKTGLSDNKIIQCHGSFATATCIKCKHKVDGSELYEDIRNQRVSYCNECGKPPLKLRRVGQNKKEKHYFSDGDSESSEDDLAQPGIMKPDITFFGEALPDSFFNKVGSGELEETDLLICIGTSLKVAPVSELISVIPPTTPQIYISRTPVRHTQFDVNFLSPYCDWVIVEICKRAGWLNELQALCDLPECHSGSKTRAFETDLDIKFEEPSTYHITSTTNGSC
notes: Sir2, histone deacetylase, S. pombe; The legend says that some untagged Sir2 from self-proteolysis was present; source: E. coli Rosetta, purified (Ni-NTA, eluted with imidazole, Superdex); not shown: 6*His-Sumo, N-terminal, kept
binding result [1]: binds

B5: Sad1_(60-169) (domain or fragment, S. pombe, UniProt Q09825 60-169, looked up)
chain: ESITPKQRFPAPNFEQAYHSNIRYEQEESDNEEFENVVKNGHEASTNVFYESDGDDEEFVNEEYENSIDEESDDEGYSLNEDTTATNASFRYPMNQRSTRKSQFYSSKFK
notes: source: E. coli Rosetta, purified; not shown: GST, N-terminal, cleaved
binding result [2]: binds

B6: Sad1_(60-169) with charge-reverse mutations of D114 and E117 (domain or fragment)
chain: ESITPKQRFPAPNFEQAYHSNIRYEQEESDNEEFENVVKNGHEASTNVFYESDGRDERFVNEEYENSIDEESDDEGYSLNEDTTATNASFRYPMNQRSTRKSQFYSSKFK
fold decrease of binding affinity against wild-type Sad1_(60-169) [2]: 5.6 fold

B7: Sad1_(60-169) F118A (domain or fragment, S. pombe, UniProt Q09825 60-169, looked up)
chain: ESITPKQRFPAPNFEQAYHSNIRYEQEESDNEEFENVVKNGHEASTNVFYESDGDDEEAVNEEYENSIDEESDDEGYSLNEDTTATNASFRYPMNQRSTRKSQFYSSKFK
notes: also called Sad1 F118A; source: E. coli Rosetta, purified; not shown: GST, N-terminal, cleaved
binding result [2]: binds
